Test results reported in PMC6284149, “Biochemical, Metabolomic, and Genetic Analyses of Dephospho Coenzyme A Kinase Involved in Coenzyme A Biosynthesis in the Human Enteric Parasite Entamoeba histolytica” (Frontiers in Microbiology, 2018).

Tests used:
[1] = target: T1, EhDPCK1 (Entamoeba histolytica, UniProt C4MB67); assay: inhibition of DPCK activity; assay type: biochemical
T1 construct: gene EHI_040840; expressed in E. coli BL21(DE3), Ni-NTA purified
T1 sequence (C4MB67 1-206): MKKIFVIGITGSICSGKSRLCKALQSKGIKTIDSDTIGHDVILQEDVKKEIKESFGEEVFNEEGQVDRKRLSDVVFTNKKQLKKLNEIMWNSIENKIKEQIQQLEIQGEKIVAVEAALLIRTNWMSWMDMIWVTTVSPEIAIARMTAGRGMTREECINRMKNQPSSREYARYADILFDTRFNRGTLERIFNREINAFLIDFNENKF

[2] = target: T2, EhDPCK2 (Entamoeba histolytica, UniProt C4LWC7); assay: inhibition of DPCK activity; assay type: biochemical
T2 construct: gene EHI_155780; expressed in E. coli BL21(DE3), Ni-NTA purified
T2 sequence (C4LWC7 1-204): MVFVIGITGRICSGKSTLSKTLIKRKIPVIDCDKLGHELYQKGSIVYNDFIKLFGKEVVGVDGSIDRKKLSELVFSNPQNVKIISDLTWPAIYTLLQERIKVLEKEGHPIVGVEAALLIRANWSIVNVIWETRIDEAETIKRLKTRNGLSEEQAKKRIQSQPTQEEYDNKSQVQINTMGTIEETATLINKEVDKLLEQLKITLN

[3] = substrate: Nc1ncnc2c1ncn2[C@@H]1O[C@H](COP(=O)(O)OP(=O)(O)OP(=O)(O)O)[C@@H](O)[C@H]1O; assay: ADP Hunter Plus coupled fluorescence assay, initial rates, non-linear regression; assay type: biochemical, Entamoeba histolytica; conditions: 128 μM dephospho-CoA; 1-100 μM ATP; 15 mM Hepes, 20 mM NaCl, 1 mM EGTA, 10 mM MgCl2
Description: (§1) ADP Hunter Plus coupled fluorescence assay, initial rates, non-linear regression on EhDPCK2

[4] = substrate: CC(C)(COP(=O)(O)OP(=O)(O)OC[C@H]1O[C@@H](n2cnc3c(N)ncnc32)[C@H](O)[C@@H]1O)[C@@H](O)C(=O)NCCC(=O)NCCS; assay: as above; assay type: biochemical, Entamoeba histolytica; conditions: 100 μM ATP; 4-128 μM dephospho-CoA; 15 mM Hepes, 20 mM NaCl, 1 mM EGTA, 10 mM MgCl2
Description: as §1

[5] = substrate: Nc1ncnc2c1ncn2[C@@H]1O[C@H](COP(=O)(O)OP(=O)(O)OP(=O)(O)O)[C@@H](O)[C@H]1O; assay: as above; assay type: biochemical, Entamoeba histolytica; conditions: 128 μM dephospho-CoA; 1-100 μM ATP; 15 mM Hepes, 20 mM NaCl, 1 mM EGTA, 10 mM MgCl2; remark: listed apart in the source
Description: (§2) ADP Hunter Plus coupled fluorescence assay, initial rates, non-linear regression on EhDPCK1

[6] = substrate: CC(C)(COP(=O)(O)OP(=O)(O)OC[C@H]1O[C@@H](n2cnc3c(N)ncnc32)[C@H](O)[C@@H]1O)[C@@H](O)C(=O)NCCC(=O)NCCS; assay: as above; assay type: biochemical, Entamoeba histolytica; conditions: 100 μM ATP; 4-128 μM dephospho-CoA; 15 mM Hepes, 20 mM NaCl, 1 mM EGTA, 10 mM MgCl2; remark: listed apart in the source
Description: as §2

[7] = feedback inhibition at relatively high concentrations
[8] = product feedback inhibition at relatively high concentrations

CC(=O)SCCNC(=O)CCNC(=O)[C@H](O)C(C)(C)COP(=O)(O)OP(=O)(O)OC[C@H]1O[C@@H](n2cnc3c(N)ncnc32)[C@H](O)[C@@H]1OP(=O)(O)O [acetyl-CoA]
inhibition [1, 7]: Both EhDPCK1 and EhDPCK2 showed similar profiles of inhibition by CoA, acetyl-CoA, and malonyl-CoA | inhibition [2, 7]: Both EhDPCK1 and EhDPCK2 showed similar profiles of inhibition by CoA, acetyl-CoA, and malonyl-CoA

CC(C)(COP(=O)(O)OP(=O)(O)OC[C@H]1O[C@@H](n2cnc3c(N)ncnc32)[C@H](O)[C@@H]1OP(=O)(O)O)[C@@H](O)C(=O)NCCC(=O)NCCSC(=O)CC(=O)O [malonyl-CoA]
inhibition [1, 7]: Both EhDPCK1 and EhDPCK2 showed similar profiles of inhibition by CoA, acetyl-CoA, and malonyl-CoA | inhibition [2, 7]: Both EhDPCK1 and EhDPCK2 showed similar profiles of inhibition by CoA, acetyl-CoA, and malonyl-CoA

CC(C)(COP(=O)(O)OP(=O)(O)OC[C@H]1O[C@@H](n2cnc3c(N)ncnc32)[C@H](O)[C@@H]1OP(=O)(O)O)[C@@H](O)C(=O)NCCC(=O)NCCS [CoA]
inhibition [1, 8]: Both EhDPCK1 and EhDPCK2 showed similar profiles of inhibition by CoA, acetyl-CoA, and malonyl-CoA | inhibition [2, 8]: Both EhDPCK1 and EhDPCK2 showed similar profiles of inhibition by CoA, acetyl-CoA, and malonyl-CoA

B1: EhDPCK2 (Entamoeba histolytica HM-1:IMSS) (protein)
chain: T2 sequence (C4LWC7 1-204)
notes: expressed in E. coli BL21(DE3), Ni-NTA purified
Km [3]: 15.0 ± 2.4 µM | Vmax [3]: 2.71 µmol/min/mg | kcat [3]: 1.05 ± 0.0617 s⁻¹ | kcat/Km [3]: 70800 ± 12300 M⁻¹ s⁻¹ | Km [4]: 57.9 ± 6.07 µM | Vmax [4]: 2.48 µmol/min/mg | kcat [4]: 0.958 ± 0.0583 s⁻¹ | kcat/Km [4]: 16500 ± 1170 M⁻¹ s⁻¹

B2: EhDPCK1 (Entamoeba histolytica HM-1:IMSS) (protein)
chain: T1 sequence (C4MB67 1-206)
notes: as for B1
Km [5]: 19.6 ± 1.2 µM | Vmax [5]: 3.54 µmol/min/mg | kcat [5]: 1.41 ± 0.04 s⁻¹ | kcat/Km [5]: 72000 ± 3830 M⁻¹ s⁻¹ | Km [6]: 114 ± 19 µM | Vmax [6]: 3.71 µmol/min/mg | kcat [6]: 1.48 ± 0.172 s⁻¹ | kcat/Km [6]: 13000 ± 667 M⁻¹ s⁻¹
